Sequences and labels used below:
B1: Androgen receptor, residues 557 to 632; numbered along this chain, P10275 (parent)
chain: QKTCLICGDEASGCHYGALTCGSCKVFFKRAAEGKQKYLCASRNDCTIDKFRRKNCPSCRLRKCYEAGMTLGARKL

± gives the uncertainty stated by the source.

The variants in this data set derive from B1. Briefly: abundance fitness (aPCA) (normalised: wild type 0, dead -1); higher = more abundant; growth selection in yeast, the domain comes from the species named. Conditions: Homo sapiens.
Turning to QKTCLICGDEASGCHYGALTCGSCKVFFKRVAEGKQKYLCASRNDCTIDKFRRKNCPSCRLRKCYEAGMTLGARKL [A31V], the abundance fitness is -0.128 ± 0.056. Under QKTCLICGDEASGCHYGALTCGSCKVFFKRYAEGKQKYLCASRNDCTIDKFRRKNCPSCRLRKCYEAGMTLGARKL [A31Y] stands 0.086 ± 0.067. Take QKTCLICGDEASGCHYGALTCGSCKVFFKRAALGKQKYLCASRNDCTIDKFRRKNCPSCRLRKCYEAGMTLGARKL [E33L]: the abundance fitness is -0.173 ± 0.046. Under QKTCLICGDEASGCHYGALTCGSCKVFFKRAATGKQKYLCASRNDCTIDKFRRKNCPSCRLRKCYEAGMTLGARKL [E33T] stands -0.058 ± 0.051. Under QKTCLICGDEASGCHYGALTCGSCKVFFKRAAYGKQKYLCASRNDCTIDKFRRKNCPSCRLRKCYEAGMTLGARKL [E33Y] stands -0.187 ± 0.064; under QKTCLICGDEASGCHYGALTCGSCKVFFKRAAKGKQKYLCASRNDCTIDKFRRKNCPSCRLRKCYEAGMTLGARKL [E33K], 0.013 ± 0.075; under QKTCLICGDEASGCHYGALTCGSCKVFFKRAARGKQKYLCASRNDCTIDKFRRKNCPSCRLRKCYEAGMTLGARKL [E33R], -0.042 ± 0.043. Under QKTCLICGDEASGCHYGALTCGSCKVFFKRAAAGKQKYLCASRNDCTIDKFRRKNCPSCRLRKCYEAGMTLGARKL [E33A] stands -0.121 ± 0.05; under QKTCLICGDEASGCHYGALTCGSCKVFFKRAAVGKQKYLCASRNDCTIDKFRRKNCPSCRLRKCYEAGMTLGARKL [E33V], -0.089 ± 0.044. QKTCLICGDEASGCHYGALTCGSCKVFFKRAACGKQKYLCASRNDCTIDKFRRKNCPSCRLRKCYEAGMTLGARKL [E33C]: the abundance fitness was found to be 0.072 ± 0.071. Under QKTCLICGDEASGCHYGALTCGSCKVFFKRAAWGKQKYLCASRNDCTIDKFRRKNCPSCRLRKCYEAGMTLGARKL [E33W] stands -0.25 ± 0.082.

As for QKTCLICGDEASGCHYGALTCGSCKVFFKRAAIGKQKYLCASRNDCTIDKFRRKNCPSCRLRKCYEAGMTLGARKL [E33I], the abundance fitness came to 0.03 ± 0.062. Then QKTCLICGDEASGCHYGALTCGSCKVFFKRAADGKQKYLCASRNDCTIDKFRRKNCPSCRLRKCYEAGMTLGARKL [E33D], with -0.066 ± 0.063. As to QKTCLICGDEASGCHYGALTCGSCKVFFKRAAGGKQKYLCASRNDCTIDKFRRKNCPSCRLRKCYEAGMTLGARKL [E33G], the abundance fitness is 0.044 ± 0.042. Then QKTCLICGDEASGCHYGALTCGSCKVFFKRAAPGKQKYLCASRNDCTIDKFRRKNCPSCRLRKCYEAGMTLGARKL [E33P], with -0.135 ± 0.066; and QKTCLICGDEASGCHYGALTCGSCKVFFKRAAMGKQKYLCASRNDCTIDKFRRKNCPSCRLRKCYEAGMTLGARKL [E33M], with 0.014 ± 0.065; and QKTCLICGDEASGCHYGALTCGSCKVFFKRAAFGKQKYLCASRNDCTIDKFRRKNCPSCRLRKCYEAGMTLGARKL [E33F], with -0.343 ± 0.069.

Regarding QKTCLICGDEASGCHYGALTCGSCKVFFKRAAQGKQKYLCASRNDCTIDKFRRKNCPSCRLRKCYEAGMTLGARKL [E33Q], the abundance fitness turned out to be 0.023 ± 0.075. Take QKTCLICGDEASGCHYGALTCGSCKVFFKRAAHGKQKYLCASRNDCTIDKFRRKNCPSCRLRKCYEAGMTLGARKL [E33H]: the abundance fitness was -0.153 ± 0.086. Under QKTCLICGDEASGCHYGALTCGSCKVFFKRAAEGRQKYLCASRNDCTIDKFRRKNCPSCRLRKCYEAGMTLGARKL [K35R] stands 0.004 ± 0.045. On to QKTCLICGDEASGCHYGALTCGSCKVFFKRAAEGDQKYLCASRNDCTIDKFRRKNCPSCRLRKCYEAGMTLGARKL [K35D], for which the abundance fitness was -0.118 ± 0.083. Under QKTCLICGDEASGCHYGALTCGSCKVFFKRAAEGEQKYLCASRNDCTIDKFRRKNCPSCRLRKCYEAGMTLGARKL [K35E] stands 0.084 ± 0.058; under QKTCLICGDEASGCHYGALTCGSCKVFFKRAAEGGQKYLCASRNDCTIDKFRRKNCPSCRLRKCYEAGMTLGARKL [K35G], -0.031 ± 0.039. Under QKTCLICGDEASGCHYGALTCGSCKVFFKRAAEGCQKYLCASRNDCTIDKFRRKNCPSCRLRKCYEAGMTLGARKL [K35C] stands -0.007 ± 0.07; under QKTCLICGDEASGCHYGALTCGSCKVFFKRAAEGMQKYLCASRNDCTIDKFRRKNCPSCRLRKCYEAGMTLGARKL [K35M], 0.018 ± 0.07.

In the case of QKTCLICGDEASGCHYGALTCGSCKVFFKRAAEGHQKYLCASRNDCTIDKFRRKNCPSCRLRKCYEAGMTLGARKL [K35H], the abundance fitness is -0.044 ± 0.075. QKTCLICGDEASGCHYGALTCGSCKVFFKRAAEGYQKYLCASRNDCTIDKFRRKNCPSCRLRKCYEAGMTLGARKL [K35Y]: the abundance fitness was -0.034 ± 0.069. Take QKTCLICGDEASGCHYGALTCGSCKVFFKRAAEGPQKYLCASRNDCTIDKFRRKNCPSCRLRKCYEAGMTLGARKL [K35P]: the abundance fitness turned out to be 0.074 ± 0.068. Under QKTCLICGDEASGCHYGALTCGSCKVFFKRAAEGSQKYLCASRNDCTIDKFRRKNCPSCRLRKCYEAGMTLGARKL [K35S] stands -0.031 ± 0.044; under QKTCLICGDEASGCHYGALTCGSCKVFFKRAAEGQQKYLCASRNDCTIDKFRRKNCPSCRLRKCYEAGMTLGARKL [K35Q], 0.007 ± 0.068; under QKTCLICGDEASGCHYGALTCGSCKVFFKRAAEGAQKYLCASRNDCTIDKFRRKNCPSCRLRKCYEAGMTLGARKL [K35A], -0.093 ± 0.052. Then QKTCLICGDEASGCHYGALTCGSCKVFFKRAAEGIQKYLCASRNDCTIDKFRRKNCPSCRLRKCYEAGMTLGARKL [K35I], with -0.09 ± 0.058. Then QKTCLICGDEASGCHYGALTCGSCKVFFKRAAEGTQKYLCASRNDCTIDKFRRKNCPSCRLRKCYEAGMTLGARKL [K35T], with 0.039 ± 0.053; and QKTCLICGDEASGCHYGALTCGSCKVFFKRAAEGLQKYLCASRNDCTIDKFRRKNCPSCRLRKCYEAGMTLGARKL [K35L], with -0.135 ± 0.044; and QKTCLICGDEASGCHYGALTCGSCKVFFKRAAEGWQKYLCASRNDCTIDKFRRKNCPSCRLRKCYEAGMTLGARKL [K35W], with -0.213 ± 0.082. On to QKTCLICGDEASGCHYGALTCGSCKVFFKRAAEGNQKYLCASRNDCTIDKFRRKNCPSCRLRKCYEAGMTLGARKL [K35N], for which the abundance fitness is -0.093 ± 0.064.

The record behind these values is the Human Domainome abundance scans (Beltran et al. 2025).
